Assay results from patent publication US7094548B2, “Purification of recombinant proteins fused to multiple epitopes” (Sigma-Aldrich Co., priority 1999, dated 2006).
One block for each molecule: values may come before it.

Tests used:
[1] = biological target: 3XFLAG-BAP (bacterial alkaline phosphatase with the triple FLAG sequence at the N-terminus) (E. coli) [phosphatase: P00634]; experiment: ELISA
[2] = biological target: 3XFLAG-BAP (bacterial alkaline phosphatase with the triple FLAG sequence at the N-terminus) (E. coli) [phosphatase: P00634]; experiment: western blot, M2 at 10 ug/ml, chemiluminescence
[3] = biological target: 3XFLAG-BAP (bacterial alkaline phosphatase with the triple FLAG sequence at the N-terminus) (E. coli) [phosphatase: P00634]; experiment: western blot, M2 at 10 ug/ml, chemiluminescence, longer exposure
[4] = biological target: 3XFLAG-BAP (bacterial alkaline phosphatase with the triple FLAG sequence at the N-terminus) (E. coli) [phosphatase: P00634]; experiment: dot blot
[5] = test system: anti-FLAG M2 affinity gel; experiment: Competitive elution from anti-FLAG M2 affinity gel; type: binding; details: for competitive elution from anti-FLAG M2 affinity gel using 3XFLAG peptide: competitor: 3XFLAG peptide
FLAG M2 antibody = experiment: Isothermal titration calorimetry of M2 antibody binding to FLAG epitopes; details: 25° C., PBS containing 0.05% sodium azide, for 3XFLAG system r>1000, accurate Ka can not be determined, in M-1 (unit assumed)
Protocol: Thermodynamic analysis of the M2 antibody binding to the FLAG epitopes was measured by isothermal titration calorimetry using an OMEGA calorimeter (Microcal). All samples were dialyzed against PBS containing 0.05% sodium azide and degassed prior to the measurements. All measurements were made at 25° C. The concentration of M2 antibody was between 15 and 50 uM depending upon which samples were used. The concentration of the titrants were 605 uM for the 1X BAP, 1110 uM for the 1X FLAG peptide, 400 uM for the 3X BAP, and 580 uM for the 3XFLAG peptide. Injections were carried out every 2.5 to 3.0 minutes which was sufficient for baseline to be achieved with injection volumes ranging from 4 to 11 uL. Injections were carried out over a 4 to 10 second period while stirring at 400 rpm. Data analysis and fitting were performed using the Origin software supplied by MicroCal. The enthalpies were obtained by numerical integration of the data and subtraction of the heats of dilution. Values of Ka, n the number of binding sites were determined by fitting the data to a theoretical curve with only the enthalpy was held constant during the fitting process.

M2 antiFLAG antibody = experiment: Western blot of purified FLAG-BAP probed with M2 anti-FLAG antibody, chemiluminescent detection; type: binding
Protocol: E. coli BL21 (DE3) were transformed with the expression plasmid containing the triple FLAG BAP construct made according to the methods of Example 1. Cells were grown in terrific broth containing 100 μg/ml ampicillin at 37° C. with agitation. The culture was grown to an OD600=4.0 and then induced with IPTG at a final concentration of 1 mM. The cell culture was grown for an additional 3 hours at 37° C. and then harvested by centrifugation. The cell pellet was resuspended in 50 mM Tris-HCl. pH 8.0 and the cells disrupted by sonication and cellular debris removed by centrifugation. The supernatant was applied to M2 affinity gel was equilibrated with 50 mM Tris-HCI pH 8.0, 150 mM NaCl (TBS). The resin was washed with 20 bed volumes of TBS and then the triple FLAG BAP was eluted with five column volumes of 0.1 M Glycine pH 3.5.
The eluted protein was pooled and adjusted to pH 7.5 with 1.0 M Tris-HCl pH 8.0. Protein content was determined by both Bradford and by absorbance using ε280=0.7ml/mg.
Purified 3XFLAG-BAP and N-BAP were diluted with to 2X Laemlli buffer, boiled for five minutes and then placed on ice. Samples were resolved on a 15% SDS-PAGE using the method of Laemlli (Laemli, V., Nature, 227:680–685 (1970)) and then transferred to nitrocellulose membranes. The membrane was blocked with phosphate buffered saline containing 3% non-fat dry milk for 1 hour and then rinsed three times in TBS, 0.05% Tween 20 (TBS-T). The membrane was incubated with M2 antibody at a final concentration of 10 μg/ml for 30 minutes in TBS-T and then rinsed three times in TBS-T. The membrane was then incubated for 30 minutes with a goat […] IgG (whole molecule) Horseradish peroxidase(HRP) conjugate diluted 1:10,000 in TBS-T then rinsed three times in TBS-T. The FLAG tagged protein were detected with the HRP conjugates and visualized by chemilumenescent detection using ECL (Amersham) and Kodak X-Omat MR film according to manufacturer's directions with exposures from 1 to 30 minutes.

- fold increase in detection against single FLAG [1]: > 10 fold
- amount detected [2]: 500 picograms
- fold increase in detection limit against single FLAG-BAP [2]: 10 fold
- amount detected [3]: 100 picograms
- fold increase in detection against single FLAG [4]: > 10 fold
Molecule: anti-FLAG M2 monoclonal antibody

- Ka (association constant) (FLAG M2 antibody): 2.09E+08
B1: 3XBAP: triple FLAG version of bacterial alkaline phosphatase expressed in E. coli from p3XFLAG-ATS-BAP and purified on M2 affinity gel (protein)
chain: MDYKDHDGDYKDHDIDYKDDDDKMPVLENRAAQGDITAPGGARRLTGDQTAALRDSLSDKPAKNIILLIGDGMGDSEITAARNYAEGAGGFFKGIDALPLTGQYTHYALNKKTGKPDYVTDSAASATAWSTGVKTYNGALGVDIHEKDHPTILEMAKAAGLATGNVSTAELQDATPAALVAHVTSRKCYGPSATSEKCPGNALEKGGKGSITEQLLNARADVTLGGGAKTFAETATAGEWQGKTLREQAQARGYQLVSDAASLNSVTEANQQKPLLGLFADGNMPVRWLGPKATYHGNIDKPAVTCTPNPQRNDSVPTLAQMTDKAIELLSKNEKGFFLQVEGASIDKQDHAANPCGQIGETVDLDEAVQRALEFAKKEGNTLVIVTADHAHASQIVAPDTKAPGLTQALNTKDGAVMVMSYGNSEEDSQEHTGSQLRIAAYGPHAANVVGLTDQTDLFYTMKAALGLK
- competitive elution from anti-FLAG M2 affinity gel using 3XFLAG peptide [5]: can be competitively eluted
- elution from anti-FLAG M2 affinity gel by competition with the original FLAG peptide ([5]; competitor: original FLAG peptide): cannot be eluted
- amount of purified protein detected (M2 antiFLAG antibody; exposures as short as 1 minute): 500 picograms
- amount of purified protein detected (M2 antiFLAG antibody; increased exposure time, with increased background): 100 picograms
- increase in detection limit compared to the single FLAG-BAP fusion protein (M2 antiFLAG antibody; western blot, M2 antibody, chemiluminescence): 10 fold

- Ka (association constant) (FLAG M2 antibody): 1.69E+07
B2: 1XBAP: bacterial alkaline phosphatase fusion protein containing the traditional FLAG epitope (DYKDDDDK), expressed in E. coli and purified (protein)
chain: DYKDDDDKMPVLENRAAQGDITAPGGARRLTGDQTAALRDSLSDKPAKNIILLIGDGMGDSEITAARNYAEGAGGFFKGIDALPLTGQYTHYALNKKTGKPDYVTDSAASATAWSTGVKTYNGALGVDIHEKDHPTILEMAKAAGLATGNVSTAELQDATPAALVAHVTSRKCYGPSATSEKCPGNALEKGGKGSITEQLLNARADVTLGGGAKTFAETATAGEWQGKTLREQAQARGYQLVSDAASLNSVTEANQQKPLLGLFADGNMPVRWLGPKATYHGNIDKPAVTCTPNPQRNDSVPTLAQMTDKAIELLSKNEKGFFLQVEGASIDKQDHAANPCGQIGETVDLDEAVQRALEFAKKEGNTLVIVTADHAHASQIVAPDTKAPGLTQALNTKDGAVMVMSYGNSEEDSQEHTGSQLRIAAYGPHAANVVGLTDQTDLFYTMKAALGLK
- competitive elution from anti-FLAG M2 affinity gel using 3XFLAG peptide [5]: can be competitively eluted
